Reference: article PMC4434891, “The Smc5-Smc6 heterodimer associates with DNA through several independent binding domains” (Scientific Reports, 2015)

Molecular target: T1, Smc6 FL (full-length Smc6) (UniProt Q12749 1-1114)
T1 construct: Smc6, full length, residues 1-1114; Vector YEpFAT4; also called FL Smc6; source: yeast, purified as previously described (StrepTrap column)
T1 sequence (looked up): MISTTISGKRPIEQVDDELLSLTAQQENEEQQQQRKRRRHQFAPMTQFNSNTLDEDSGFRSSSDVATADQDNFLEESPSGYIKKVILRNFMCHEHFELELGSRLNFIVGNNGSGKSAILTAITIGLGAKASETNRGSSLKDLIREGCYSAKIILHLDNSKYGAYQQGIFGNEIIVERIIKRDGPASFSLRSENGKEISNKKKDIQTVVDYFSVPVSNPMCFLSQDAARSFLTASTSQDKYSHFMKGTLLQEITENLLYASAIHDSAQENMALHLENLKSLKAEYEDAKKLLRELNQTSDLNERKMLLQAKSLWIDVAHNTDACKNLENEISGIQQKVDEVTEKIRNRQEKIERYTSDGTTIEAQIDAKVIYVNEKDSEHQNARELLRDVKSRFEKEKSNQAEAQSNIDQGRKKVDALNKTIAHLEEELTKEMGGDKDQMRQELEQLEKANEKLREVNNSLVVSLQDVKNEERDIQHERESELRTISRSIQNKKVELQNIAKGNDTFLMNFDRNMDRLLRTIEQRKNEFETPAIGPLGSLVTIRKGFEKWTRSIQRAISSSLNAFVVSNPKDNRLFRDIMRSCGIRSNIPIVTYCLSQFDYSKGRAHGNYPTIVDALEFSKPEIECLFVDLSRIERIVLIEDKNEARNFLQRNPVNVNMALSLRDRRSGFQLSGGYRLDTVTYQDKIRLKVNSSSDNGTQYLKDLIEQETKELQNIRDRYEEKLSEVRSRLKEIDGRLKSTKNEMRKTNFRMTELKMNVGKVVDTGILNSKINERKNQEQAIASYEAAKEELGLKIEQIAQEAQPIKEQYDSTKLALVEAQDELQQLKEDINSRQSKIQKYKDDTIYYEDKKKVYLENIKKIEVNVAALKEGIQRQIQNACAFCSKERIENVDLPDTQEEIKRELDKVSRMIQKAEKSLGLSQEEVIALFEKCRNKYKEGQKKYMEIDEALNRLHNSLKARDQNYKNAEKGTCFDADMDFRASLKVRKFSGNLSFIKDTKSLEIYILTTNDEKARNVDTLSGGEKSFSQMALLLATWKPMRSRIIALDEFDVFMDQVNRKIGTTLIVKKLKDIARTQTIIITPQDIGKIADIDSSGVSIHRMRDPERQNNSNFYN
Experiment: SEC; StrepTrap eluates of Smc6 (5 mL) and Smc5 (150 uL) mixed, overnight at 4 °C, concentrated; complexes separated from monomeric subunits on Superose 6 10/300 in buffer G (25 mM potassium phosphate pH 8.0, 750 mM NaCl, 15% glycerol, 0.2% Tween 20, 2 mM 2-ME, 1 mM EDTA)
Settings: both partners purified

binding result: binds
B1: Smc5 FL (full-length Smc5) (natural protein, UniProt Q08204 1-1093, looked up)
chain: MTSLIDLGRYVERTHHGEDTEPRSKRVKIAKPDLSSFQPGSIIKIRLQDFVTYTLTEFNLSPSLNMIIGPNGSGKSTFVCAVCLGLAGKPEYIGRSKKVEDFIKNGQDVSKIEITLKNSPNVTDIEYIDARDETIKITRIITRSKRRSDYLINDYQVSESVVKTLVAQLNIQLDNLCQFLSQERVEEFARLKSVKLLVETIRSIDASLLDVLDELRELQGNEQSLQKDLDFKKAKIVHLRQESDKLRKSVESLRDFQNKKGEIELHSQLLPYVKVKDHKEKLNIYKEEYERAKANLRAILKDKKPFANTKKTLENQVEELTEKCSLKTDEFLKAKEKINEIFEKLNTIRDEVIKKKNQNEYYRGRTKKLQATIISTKEDFLRSQEILAQTHLPEKSVFEDIDIKRKEIINKEGEIRDLISEIDAKANAINHEMRSIQRQAESKTKSLTTTDKIGILNQDQDLKEVRDAVLMVREHPEMKDKILEPPIMTVSAINAQFAAYLAQCVDYNTSKALTVVDSDSYKLFANPILDKFKVNLRELSSADTTPPVPAETVRDLGFEGYLSDFITGDKRVMKMLCQTSKIHTIPVSRRELTPAQIKKLITPRPNGKILFKRIIHGNRLVDIKQSAYGSKQVFPTDVSIKQTNFYQGSIMSNEQKIRIENEIINLKNEYNDRKSTLDALSNQKSGYRHELSELASKNDDINREAHQLNEIRKKYTMRKSTIETLREKLDQLKREARKDVSQKIKDIDDQIQQLLLKQRHLLSKMASSMKSLKNCQKELISTQILQFEAQNMDVSMNDVIGFFNEREADLKSQYEDKKKFVKEMRDTPEFQSWMREIRSYDQDTKEKLNKVAEKYEEEGNFNLSFVQDVLDKLESEIAMVNHDESAVTILDQVTAELRELEHTVPQQSKDLETIKAKLKEDHAVLEPKLDDIVSKISARFARLFNNVGSAGAVRLEKPKDYAEWKIEIMVKFRDNAPLKKLDSHTQSGGERAVSTVLYMIALQEFTSAPFRVVDEINQGMDSRNERIVHKAMVENACAENTSQYFLITPKLLTGLHYHEKMRIHCVMAGSWIPNPSEDPKMIHFGETSNYSFD
notes: Smc5, full length, residues 1-1093; Vector YEpFAT4; also called FL Smc5; source: yeast, purified as previously described (StrepTrap column)
